Laboratory results as given in article PMC12416549 (2024).
Substitutions are numbered along the chain they refer to. Names may count otherwise.

T1: TNFR1 (Homo sapiens, UniProt P19438)
T1 chain: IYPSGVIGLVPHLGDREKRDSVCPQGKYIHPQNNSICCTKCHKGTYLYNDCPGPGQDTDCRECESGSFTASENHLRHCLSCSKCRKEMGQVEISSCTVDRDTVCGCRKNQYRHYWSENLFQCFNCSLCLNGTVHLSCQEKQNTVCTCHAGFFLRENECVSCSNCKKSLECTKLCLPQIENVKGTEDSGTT

B1: L28C (designed binder)
chain: SMEEEVEKAAKEYEKKKKEAIEKHLEKCKAKDKEAAERFLKELEEAAKEYAKDEAKTMSEEEAKRRAKKYKEKVLLSELSEEEQKEIKEAEEKLVRTILKYVEEAAK
B2: A9C (designed binder)
chain: B1 chain with A9C, C28L
B3: M58K (designed binder)
chain: B1 chain with C28L, M58K
B4: L75K (designed binder)
chain: B1 chain with C28L, L75K
B5: E42H (designed binder)
chain: B1 chain with C28L, E42H
B6: Y101L (designed binder)
chain: B1 chain with C28L, Y101L
B7: V102L (designed binder)
chain: B1 chain with C28L, V102L
B8: E42C (designed binder)
chain: B1 chain with C28L, E42C
B9: V95C (designed binder)
chain: B1 chain with C28L, V95C
B10: A35G (designed binder)
chain: B1 chain with C28L, A35G
B11: V74L (designed binder)
chain: B1 chain with C28L, V74L
B12: L79V (designed binder)
chain: B1 chain with C28L, L79V
B13: E83S (designed binder)
chain: B1 chain with C28L, E83S
B14: L99F (designed binder)
chain: B1 chain with C28L, L99F
B15: L25D (designed binder)
chain: B1 chain with L25D, C28L
B16: E37C (designed binder)
chain: B1 chain with C28L, E37C
B17: K15E (designed binder)
chain: B1 chain with K15E, C28L
B18: L94M (designed binder)
chain: B1 chain with C28L, L94M
B19: V6Q (designed binder)
chain: B1 chain with V6Q, C28L
B20: V6G (designed binder)
chain: B1 chain with V6G, C28L
B21: R65A (designed binder)
chain: B1 chain with C28L, R65A
B22: A51M (designed binder)
chain: B1 chain with C28L, A51M
B23: Y50V (designed binder)
chain: B1 chain with C28L, Y50V
B24: A63Q (designed binder)
chain: B1 chain with C28L, A63Q
B25: S77I (designed binder)
chain: B1 chain with C28L, S77I
B26: I21Y (designed binder)
chain: B1 chain with I21Y, C28L
B27: Y13M (designed binder)
chain: B1 chain with Y13M, C28L
B28: E54K (designed binder)
chain: B1 chain with C28L, E54K
B29: E78N (designed binder)
chain: B1 chain with C28L, E78N
B30: K29E (designed binder)
chain: B1 chain with C28L, K29E
B31: K56T (designed binder)
chain: B1 chain with C28L, K56T
B32: K68L (designed binder)
chain: B1 chain with C28L, K68L
B33: K73I (designed binder)
chain: B1 chain with C28L, K73I
B34: A30D (designed binder)
chain: B1 chain with C28L, A30D
B35: E19K (designed binder)
chain: B1 chain with E19K, C28L
B36: K69G (designed binder)
chain: B1 chain with C28L, K69G
B37: A106D (designed binder)
chain: B1 chain with C28L, A106D
B38: E4N (designed binder)
chain: B1 chain with E4N, C28L
B39: E19P (designed binder)
chain: B1 chain with E19P, C28L
B40: K52M (designed binder)
chain: B1 chain with C28L, K52M
B41: E4G (designed binder)
chain: B1 chain with E4G, C28L
B42: V74R (designed binder)
chain: B1 chain with C28L, V74R
B43: K107D (designed binder)
chain: B1 chain with C28L, K107D
B44: E34W (designed binder)
chain: B1 chain with C28L, E34W
B45: I98P (designed binder)
chain: B1 chain with C28L, I98P
B46: A105V (designed binder)
chain: B1 chain with C28L, A105V
B47: E49R (designed binder)
chain: B1 chain with C28L, E49R
B48: E26N (designed binder)
chain: B1 chain with E26N, C28L
B49: K68N (designed binder)
chain: B1 chain with C28L, K68N
B50: E19N (designed binder)
chain: B1 chain with E19N, C28L
B51: A55F (designed binder)
chain: B1 chain with C28L, A55F
B52: T57R (designed binder)
chain: B1 chain with C28L, T57R
B53: K17M (designed binder)
chain: B1 chain with K17M, C28L
B54: E104G (designed binder)
chain: B1 chain with C28L, E104G
B55: K41W (designed binder)
chain: B1 chain with C28L, K41W
B56: L79G (designed binder)
chain: B1 chain with C28L, L79G
B57: F39V (designed binder)
chain: B1 chain with C28L, F39V
B58: A106Y (designed binder)
chain: B1 chain with C28L, A106Y
B59: L40K (designed binder)
chain: B1 chain with C28L, L40K

Target: T1, TNFR1
Experiment: yeast display SC50

| Binder | apparent Kd (screen) |
| --- | --- |
| B1 | 0.49 nM |
| B2 | 0.446 nM |
| B3 | 16.7 nM |
| B4 | 1.69 nM |
| B5 | 5.84 nM |
| B6 | 0.405 nM |
| B7 | 3 nM |
| B8 | 22.2 nM |
| B9 | 11.4 nM |
| B10 | 1.16 nM |
| B11 | 0.49 nM |
| B12 | 1.27 nM |
| B13 | 0.869 nM |
| B14 | 9.41 nM |
| B15 | 2.73 nM |
| B16 | 0.49 nM |
| B17 | 0.869 nM |
| B18 | 1.86 nM |
| B19 | 6.43 nM |
| B20 | 2.48 nM |

| Binder | apparent Kd (screen) |
| --- | --- |
| B21 | 1.27 nM |
| B22 | 0.49 nM |
| B23 | 0.0802 nM |
| B24 | 1.4 nM |
| B25 | 11.4 nM |
| B26 | 0.446 nM |
| B27 | 0.593 nM |
| B28 | 8.56 nM |
| B29 | 2.73 nM |
| B30 | 0.869 nM |
| B31 | 3 nM |
| B32 | 2.73 nM |
| B33 | 2.73 nM |
| B34 | 1.4 nM |
| B35 | 0.49 nM |
| B36 | 2.25 nM |
| B37 | 0.79 nM |
| B38 | 0.539 nM |
| B39 | 22.2 nM |
| B40 | 0.446 nM |

| Binder | apparent Kd (screen) |
| --- | --- |
| B41 | 0.718 nM |
| B42 | 5.31 nM |
| B43 | 0.0498 nM |
| B44 | 0.446 nM |
| B45 | 1.86 nM |
| B46 | 1.16 nM |
| B47 | 0.956 nM |
| B48 | 0.593 nM |
| B49 | 0.653 nM |
| B50 | 0.446 nM |
| B51 | 11.4 nM |
| B52 | 0.49 nM |
| B53 | 0.79 nM |
| B54 | 0.446 nM |
| B55 | 0.446 nM |
| B56 | 2.48 nM |
| B57 | 4.39 nM |
| B58 | 2.73 nM |
| B59 | 0.446 nM |
